T1: human CD79B protein on the surface of DoHH2 cells (human, UniProt P40259 29-229)
T1 construct: whole, on cells; endogenous CD79B on a B-cell lymphoma line
T1 sequence (looked up): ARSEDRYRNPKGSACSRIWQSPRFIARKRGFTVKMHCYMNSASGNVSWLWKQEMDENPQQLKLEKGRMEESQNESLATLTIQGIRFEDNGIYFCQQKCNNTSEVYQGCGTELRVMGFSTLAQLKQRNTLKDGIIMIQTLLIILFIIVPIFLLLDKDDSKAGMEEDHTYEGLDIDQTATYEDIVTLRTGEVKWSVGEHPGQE

T2: fusion protein of human CD79B extracellular domain (ECD) and His tag (human CD79B ECD-His) (human, UniProt P40259 29-159)
T2 construct: also called human CD79B-His; Human CD79B-His protein
T2 sequence: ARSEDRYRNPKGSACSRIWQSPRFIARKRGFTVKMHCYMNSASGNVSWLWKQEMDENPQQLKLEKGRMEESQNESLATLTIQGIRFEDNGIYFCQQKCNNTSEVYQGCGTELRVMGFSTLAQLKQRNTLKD

T3: human CD79B antigen (coating antigen of the ELISA, construct not stated) (human, UniProt P40259 29-159)
T3 sequence (looked up): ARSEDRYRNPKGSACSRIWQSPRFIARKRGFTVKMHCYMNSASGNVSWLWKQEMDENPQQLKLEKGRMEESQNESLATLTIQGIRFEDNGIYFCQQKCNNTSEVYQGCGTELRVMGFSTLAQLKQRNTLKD

B1: SN8 (antibody, V domains shown)
VH: EVQLVESGGGLVQPGGSLRLSCAASGYTFSSYWIEWVRQAPGKGLEWIGEILPGGGDTNYNEIFKGRATFSADTSKNTAYLQMNSLRAEDTAVYYCTRRVPIRLDYWGQGTLVTVSS
VL: DIQLTQSPSSLSASVGDRVTITCKASQSVDYEGDSFLNWYQQKPGKAPKLLIYAASNLESGVPSRFSGSGSGTDFTLTISSLQPEDFATYYCQQSNEDPLTFGQGTKVEIKR
B2: humanized antibody hAb015 (antibody, human IgG1, kappa, V domains shown)
VH: EVQLVQSGAEVKKPGSSVKVSCKASGSSFSSYGINWVKQAPGQGLEWIGEIFPRSGNTYYNEKFEGRATLTADKSTSTAYMELRSLRSEDTAVYYCAKGDLGDFDYWGQGTTVTVSS
VL: DFVMTQTPLSLPVTPGEPASISCRSSQSIVHSDGNTYFEWYLQKPGQSPKLLIYKVSNRFSGVPDRFSGSGSGTDFTLKISRVEAEDVGVYYCFQGSHVPWTFGGGTKVEIKR
B3: humanized antibody hAb017 (antibody, human IgG1, kappa, V domains shown)
VH: EVQLVQSGAEVKKPGASVKVSCKASGYTFTTYGINWVKQAPGQGLEWIGEIYPRSGNIYYNEKFKGKATLTADKSTSTAYMELRSLRSDDTAVYYCARGSDYDGDFAYWGQGTLVTVSS
VL: DVVMTQTPLSLPVTPGEPASISCRSSQSIVHHDGNTYLEWYLQKPGQSPQLLIYKVSNRFSGVPDRFSGSGSGTDFTLKISRVEAEDVGVYYCFQGSHVPWTFGGGTKVEIKR
B4: murine hybridoma monoclonal antibody mAb015 (antibody, V domains shown)
VH: QVQLQQSGAELARPGASVKLSCKASGSSFTSYGINWVKQRTGQGLEWIGEIFPRSGNTYYNEKFEGKATLTADKSSSTAYMELRSLTSEDSAVYFCAKGDLGDFDYWGQGTTLTVSS
VL: DFLMTQTPLSLPVRLGDQASISCRSSQSIVHSDGNTYFEWYLQKPGQSPKLLIYKVSNRFSGVPDRFSGSGSGTDFTLKISRVEAEDLGVYYCFQGSHVPWTFGGGTKLEIK
notes: murine monoclonal antibody from hybridoma; also called 83B2G2
B5: murine hybridoma monoclonal antibody mAb017 (antibody, V domains shown)
VH: QVQLQQSGAELARPGASVKLSCKASGYTFTTYGINWVKQRTGQGLEWIGEIYPRSGNIYYNEKFKGKATLTADKSSSTAYMELRSLTSEDSAVYFCARGSDYDGDFAYWGQGTLVTVSA
VL: DVLMTQTPLSLPVSLGDQASISCRSSQSIVHHDGNTYLEWYLQKPGQSPKLLIYKVSNRFSGVPDRFSGSGSGTDFTLKISRVEAEDLGVYYCFQGSHVPWTFGGGTQLEIK
notes: murine monoclonal antibody from hybridoma; also called 86F11F6
B6: murine hybridoma monoclonal antibody mAb016 (antibody, V domains shown)
VH: QVQLQQSGAELARPGASVKLSCKASGYIFTNYGIIWVKQRTGQGLEWIGDIFPGSGNTYYNENFKGKATLTADKSSSTAYMELRSLTSEDSAVYFCSRGELGDFDYWGQGTTLTVSS
VL: VVLMTQTPLSLPVSLGDQASISCRSSQNIVHSDGTTYLEWYLQKPGQSPKLLIYKVSNRFSGVPDRFSGSGSGTDFTLKISRVEAEDLGIYYCFQGSHVPWTFGGGTKLEIK
notes: murine monoclonal antibody from hybridoma; also called 83C2D4

Legend:
[1] = target: T1, human CD79B protein on the surface of …; assay: FACS on DOHH2 cells, serial antibody dilutions, FITC secondary antibody, MFI
[2] = target: T2, fusion protein of human CD79B …; assay: SPR (Biacore 8K; by Example 2 human CD79B-His immobilised on CM5 chip, antibody flowed over)
[3] = target: T1, human CD79B protein on the surface of …; assay: FACS on DOHH2 cells, serial antibody dilutions, anti-mouse IgG Fc-FITC secondary antibody, MFI
Description: 3) FACS detection of anti-human CD79B murine monoclonal antibodies. After centrifugation of the DOHH2 cell suspension, the cells were resuspended in PBS containing 0.1% BSA and counted. 100 μl of antibody diluted to 100 nM (by 1:10) was added and incubated for 1 h at room temperature. After washing the cells for three times, anti-mouse IgG Fc-FITC secondary antibody was added. After 30 min of incubation at room temperature in the dark, the cells were washed for three times and gently resuspended in PBS containing 0.1% BSA for testing on an instrument. Among them, three anti-human CD79B murine monoclonal antibodies had the strongest FACS binding ability, including mAb015, mAb016 and mAb017 (see FIG. 8 for specific data). Among them, hIgG1 was the negative control antibody and SN8 was the positive control antibody. It can be known from the results that in the FACS experiment, the binding ability of the three anti-human CD79B murine monoclonal antibodies mAb015, mAb016 and mAb017 selected preferably by the present disclosure was better than that of SN8.

[4] = target: T3, human CD79B antigen (coating antigen of …); assay: ELISA, plate coated with antigen at 1 ug/mL, serial antibody dilutions, OD450
Description: 2) ELISA detection of anti-human CD79B murine monoclonal antibodies. Before the start of the experiment, a 96-well plate was labeled accordingly and coated with an antigen at a concentration of 1 μg/mL, 50 μl per well overnight in a refrigerator at 4° C. The next day, the antigen plate coated the day before was taken out and washed with a plate washer (washing solution: 1×PBST) for once. After washing, the plate was blocked with 1% BSA blocking solution prepared in 1×PBST at 37° C. for 1 h. After washing the plate with 1×PBST washing solution for 3 times, 50 μl of antibody, diluted to 100 nM (by 1:10), were added and incubated in a 37° C. incubator for 1 h. After washing the plate with ×PBST washing solution for 3 times, 100 μl 1:5000 diluted goat-anti-mouse secondary antibody was added and incubated in a 37° C. incubator for 0.5 h. After washing the plate, TMB chromogenic solution A and B were mixed at a 1:1 ratio and then color development was carried out. The development reaction was terminated with 1 N hydrochloric acid after 15 min. The […] at 450 nm were detected on a Spectra Max M5 multi-function plate reader. Among them, three anti-human CD79B murine monoclonal antibodies had the strongest ELISA binding ability, including mAb015, mAb016 and mAb017 (see FIG. 7 for specific data). Among them, hIgG1 was the negative control antibody and SN8 was the positive control antibody. SN8 is the antibody used in the antibody-conjugated drug polatuzumab vedotin developed by Roche Pharmaceuticals (for the sequence, refer to the source of the sequence: US20170362318A). At present, polatuzumab vedotin has been approved by the FDA for marketing. It can be seen from the results that in the ELISA experiment, the binding ability of the three anti-human CD79B murine monoclonal antibodies mAb015, mAb016 and mAb017 selected preferably by the present disclosure was similar to that of SN8.

[5] = target: T3, human CD79B antigen (coating antigen of …); assay: ELISA, hybridoma culture supernatant on plate coated with antigen 1 µg/mL
Description: 3) ELISA screening. Before the start of the experiment, a 96-well plate was labeled accordingly and coated with an antigen at a concentration of 1 μg/mL, 50 μl per well overnight in a refrigerator at 4° C. The next day, the antigen plate coated the day before was taken out and washed with a plate washer (washing solution: 1×PBST). After washing, the plate was blocked with 1% BSA blocking solution prepared in 1×PBST at 37° C. for 1 h. After washing the plate with 1×PBST washing solution for 3 times, 50 μl of cell supernatant to be tested were added and incubated in a 37° C. incubator for 1 h. After washing the plate with 1×PBST washing solution for 3 times, 100 μl 1:5000 diluted goat-anti-mouse secondary antibody was added and incubated in a 37° C. incubator for 0.5 h. After washing the plate, TMB chromogenic solution A and B were mixed at a 1:1 ratio and then color development was carried out. The development reaction was terminated with 1 N hydrochloric acid after 15 min. The […] at 450 nm were detected on a Spectra Max M5 multi-function plate reader.
(§1) 5) Identification of positive hybridoma clones. After fusion and subclone screening of mouse spleen cells, we obtained a number of specific antibodies against human CD79B antigen. Among them, 17 hybridomas with the best ELISA and FACS binding ability were used for antibody production and purification. The FACS detection results of the culture supernatant of anti-human CD79B hybridoma positive clone cells are shown in Table 2. mIgG was used as a negative control in both ELISA and FACS tests.

[6] = target: T1, human CD79B protein on the surface of …; assay: FACS, hybridoma culture supernatant on DoHH2 cells
Description: 4) FACS screening. DoHH2 cell suspensions were centrifuged and the cells were resuspended in PBS containing 0.1% BSA and counted. The cell supernatant to be tested was added. After 60 min of incubation at room temperature, the cells were washed for three times and then anti-mouse IgG Fc-FITC secondary antibody was added. After 30 min of incubation at room temperature in the dark, the cells were washed for three times and gently resuspended in PBS containing 0.1% BSA for detection on the instrument.
as §1

| Binder | EC50 (read off the curve) [1] | Kd [2] | EC50 (read off the curve) [3] | EC50 (read off the curve) [4] | OD450 [5] | Mean fluorescence values [6] |
| --- | --- | --- | --- | --- | --- | --- |
| B1 | ~0.09 µg/mL | – | – | – | – | – |
| B2 | – | 430 pM | – | – | – | – |
| B3 | – | 3770 pM | – | – | – | – |
| B4 | – | – | ~0.02 µg/mL | ~100 pM | 3.41 OD450 | 10000 mean fluorescence |
| B5 | – | – | ~0.02 µg/mL | ~100 pM | 3.8 OD450 | 8130 mean fluorescence |
| B6 | – | – | ~0.02 µg/mL | ~100 pM | 3.46 OD450 | 9990 mean fluorescence |

Reference: US20220162304A1 (TUOJIE BIOTECH SHANGHAI, published 2022)
